According to patent publication US20240158497A1 (published 2024):
Each block holds one binder with its values, some of them ahead of it.

Experiments:
[1] = target: T1, human GP130 extracellular domain expressed with a C-terminal myc-myc-hexahistidine tag (human, UniProt P40189 23-619); test: SPR (Biacore 4000), mAb captured on anti-human Fc, 37 C
T1 construct: Monomeric reagent; also called hGP130-mmH; hGP130-MMH
Experimental: (§1) Equilibrium dissociation constant (KD) for different GP130 reagents binding to purified anti-GP130 monoclonal antibodies were determined using a real-time surface plasmon resonance based Biacore 4000 biosensor. All binding studies were performed in 10 mM HEPES, 150 mM NaCl, 3 mM EDTA, and 0.05% v/v Surfactant Tween-20, pH 7.4 (HBS-ET) running buffer at 25° C. and 37° C. The Biacore sensor surface was first derivatized by amine coupling with a monoclonal mouse anti-human Fc antibody (GE, #BR-1008-39) to capture anti-GP130 monoclonal antibodies. […] Reagents tagged with “mmH” are monomeric, whereas reagents tagged with “mFc” are dimeric. Thus, for example, “hGP130-mmH” is also referred to as “monomeric human GP130,” and “hGP130-mFc” is also referred to as “dimeric human GP130.”
(§2) The association rate (k a) and dissociation rate (kd) were determined by fitting the real-time binding sensorgrams to a 1:1 binding model with mass transport limitation using Scrubber 2.0c curve-fitting software. Binding dissociation equilibrium constant (KD) and dissociative half-life (t ½) were calculated from the kinetic rates as: […]

[2] = target: T2, Macaca fascicularis GP130 extracellular domain expressed with a C-terminal myc-myc-hexahistidine tag (Macaca fascicularis, UniProt P40189 23-619 (human entry)); test: as above
T2 construct: Monomeric reagent; also called mfGP130-mmH; mfGP130-MMH
T2 chain: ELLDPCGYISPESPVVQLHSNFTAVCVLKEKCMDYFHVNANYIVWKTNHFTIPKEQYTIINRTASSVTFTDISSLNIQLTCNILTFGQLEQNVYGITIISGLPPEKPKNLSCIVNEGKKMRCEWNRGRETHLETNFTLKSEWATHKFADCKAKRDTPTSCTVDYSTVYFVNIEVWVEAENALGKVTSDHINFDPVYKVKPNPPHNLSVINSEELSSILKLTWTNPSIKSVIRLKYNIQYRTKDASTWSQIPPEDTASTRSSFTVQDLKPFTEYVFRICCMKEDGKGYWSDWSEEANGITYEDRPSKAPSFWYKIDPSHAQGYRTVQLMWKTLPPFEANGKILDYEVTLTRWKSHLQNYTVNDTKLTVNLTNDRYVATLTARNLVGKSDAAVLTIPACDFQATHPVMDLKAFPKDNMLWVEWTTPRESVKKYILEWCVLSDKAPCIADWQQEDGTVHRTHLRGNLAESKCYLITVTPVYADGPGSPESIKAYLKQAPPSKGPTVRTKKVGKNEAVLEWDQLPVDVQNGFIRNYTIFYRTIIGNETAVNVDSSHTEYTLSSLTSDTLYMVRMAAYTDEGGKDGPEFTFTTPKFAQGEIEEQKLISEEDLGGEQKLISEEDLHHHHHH
Experimental: as §1, §2

[3] = target: T2, Macaca fascicularis GP130 extracellular …; test: SPR (Biacore 4000), mAb captured on anti-human Fc, 25 C
Experimental: as §1, §2

[4] = target: T3, human GP130 extracellular domain expressed with a C-terminal mouse IgG2a Fc tag (hGP130-mFc) (human); test: SPR Biacore, mAb captured via anti-hFc, 25 C
T3 construct: also called dimeric human GP130
T3 chain: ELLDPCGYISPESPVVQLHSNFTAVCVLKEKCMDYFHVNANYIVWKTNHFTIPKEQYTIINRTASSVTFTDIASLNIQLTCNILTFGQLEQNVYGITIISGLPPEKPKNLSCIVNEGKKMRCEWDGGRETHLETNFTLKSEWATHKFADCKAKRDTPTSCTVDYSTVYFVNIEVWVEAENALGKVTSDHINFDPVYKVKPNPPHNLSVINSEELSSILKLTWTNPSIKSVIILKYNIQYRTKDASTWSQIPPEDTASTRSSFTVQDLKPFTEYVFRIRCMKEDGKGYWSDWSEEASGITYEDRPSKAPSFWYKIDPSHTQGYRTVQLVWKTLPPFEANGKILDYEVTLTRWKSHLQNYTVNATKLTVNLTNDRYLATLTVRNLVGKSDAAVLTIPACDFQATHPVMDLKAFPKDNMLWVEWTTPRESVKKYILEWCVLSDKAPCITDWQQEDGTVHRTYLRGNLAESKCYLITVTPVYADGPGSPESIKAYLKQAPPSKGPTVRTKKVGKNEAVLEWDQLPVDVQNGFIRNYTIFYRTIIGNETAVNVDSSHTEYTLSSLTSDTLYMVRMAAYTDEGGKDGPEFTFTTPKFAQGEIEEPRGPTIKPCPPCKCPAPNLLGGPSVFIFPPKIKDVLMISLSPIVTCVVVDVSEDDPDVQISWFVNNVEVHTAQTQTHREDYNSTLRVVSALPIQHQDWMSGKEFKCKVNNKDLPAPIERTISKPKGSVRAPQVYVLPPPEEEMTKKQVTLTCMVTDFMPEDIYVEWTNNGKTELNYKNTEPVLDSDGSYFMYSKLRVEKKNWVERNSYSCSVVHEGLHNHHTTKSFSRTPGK
Experimental: as §1, §2

[5] = target: T4, mouse GP130 extracellular domain expressed with a C-terminal myc-myc-hexahistidine tag (mGP130-mmH) (mouse, UniProt Q00560 23-617); test: SPR Biacore, mAb captured via anti-hFc, 25 C
T4 construct: Monomeric; the entry includes the myc-myc-His tag
Experimental: as §1, §2

[6] = target: T5, rat GP130 extracellular domain expressed with a C-terminal myc-myc-hexahistidine tag (rGP130-mmH) (rat, UniProt P40190 23-618); test: SPR Biacore, mAb captured via anti-hFc, 25 C
T5 construct: Monomeric; the entry includes the myc-myc-His tag
Experimental: as §1, §2

[7] = target: T3, human GP130 extracellular domain …; test: SPR Biacore, mAb captured via anti-hFc, 37 C
Experimental: as §1, §2

[8] = target: T4, mouse GP130 extracellular domain …; test: SPR Biacore, mAb captured via anti-hFc, 37 C
Experimental: as §1, §2

[9] = target: T5, rat GP130 extracellular domain …; test: SPR Biacore, mAb captured via anti-hFc, 37 C
Experimental: as §1, §2

[10] = target: T6, human GP130 delta D1-D3 with C-terminal myc-myc hexahistidine tag (human, UniProt P40189 329-619); test: Luminex, antigen captured on anti-myc beads
T6 construct: used as CHO supernatant; also called human GP130 delta D1-D3-MMH; GP130 Delta D1-D3 extracellular domain
Experimental: Aliquots of microspheres with immobilized anti-myc monoclonal antibodies, prepared as described above, were added individually to 1 mL of the each of these protein supernatants and to 500 uL of purified GP130 protein. The microspheres were gently mixed, incubated for two hours at 25° C., washed twice with 1 mL of DBPS, centrifuged to remove the supernatant and finally resuspended in 1 mL of DPBS buffer. Forty eight μL of anti-myc IgG coupled microspheres from individual reactions with full length human GP130 and with each of the human GP130 domain proteins were withdrawn and mixed together in 3.6 mL of PBS+20 mg/mL BSA+0.05% sodium azide (blocking buffer).
From this mixed pool, 75 μL of microspheres were plated per well on a 96 well filter plate (Millipore, Cat. No: MSBVN1250) and mixed with 25 μL of individual anti-human GP130 monoclonal antibodies (0.5 or 5 μg/mL), incubated for two hours at 25° C. and then washed twice with 200 μL of DPBS with 0.05% Tween 20 (washing buffer). To detect and quantify the amounts of bound anti-GP130 antibody levels to individual microspheres, either 100 μL of 2.5 μg/mL R-Phycoerythrin conjugated goat F(ab′)2 anti-human kappa (Southern Biotech, Cat #2063-09) in blocking buffer, was added and incubated for 30 minutes at 25° C. After 30 minutes, the samples were washed twice with 200 μL of washing buffer and resuspended in 150 μL of wash buffer. The Median Fluorescence intensity (MFI) of the microspheres was measured in a Luminex Analyzer.

B1: MAb16683 (antibody, V domains shown)
VH: QVQLVESGGGLVKPGGSLRLSCAASGFTFSDYYMTWIRQTPGKGLDWVSYISSSGTNKYNADSVKGRFTISRDNAKNSLYLQMNSLRAEDTAVYYCVRDPPWGMDVWGQGTTVTVSS
VL: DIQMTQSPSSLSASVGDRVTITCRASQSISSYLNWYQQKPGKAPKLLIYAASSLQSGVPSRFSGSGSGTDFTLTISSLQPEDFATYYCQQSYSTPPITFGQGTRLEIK
100 nM Ag Bound [1]: 38 RU | Kd [1]: 117 nM | koff [1]: 0.0125 s⁻¹ | kon [1]: 107000 M⁻¹ s⁻¹ | t½ [1]: 0.9 min | 100 nM Ag Bound [2]: 43 RU | Kd [2]: 125 nM | koff [2]: 0.0121 s⁻¹ | kon [2]: 96500 M⁻¹ s⁻¹ | t½ [2]: 1 min | 100 nM Ag Bound [3]: 59 RU | Kd [3]: 37.4 nM | koff [3]: 0.00246 s⁻¹ | kon [3]: 65700 M⁻¹ s⁻¹ | t½ [3]: 5 min

B2: MAb16682 (antibody, V domains shown)
VH: EVQLVESGGGLVQPGGSLRLSCAASGFTFSTYWMNWVRQAPGKGLEWVANIKEDGSEKYYVDSVKGRFTISRDNAKNSLYLQMNSLRAEDTAVYYCAREGFGVVTYIWGQGTMVTVSS
VL: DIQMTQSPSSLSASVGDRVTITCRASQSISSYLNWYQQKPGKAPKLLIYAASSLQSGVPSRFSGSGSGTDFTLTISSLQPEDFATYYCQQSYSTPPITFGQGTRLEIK
100 nM Ag Bound [1]: 16 RU | Kd [1]: 113 nM | koff [1]: 0.0341 s⁻¹ | kon [1]: 301000 M⁻¹ s⁻¹ | t½ [1]: 0.3 min | 100 nM Ag Bound [2]: 15 RU | Kd [2]: 124 nM | koff [2]: 0.0386 s⁻¹ | kon [2]: 311000 M⁻¹ s⁻¹ | t½ [2]: 0.3 min | 100 nM Ag Bound [3]: 20 RU | Kd [3]: 132 nM | koff [3]: 0.0168 s⁻¹ | kon [3]: 128000 M⁻¹ s⁻¹ | t½ [3]: 0.7 min

B3: MAb16676 (antibody, V domains shown)
VH: QVQLVQSGAEVMKPGASVKVSCRASGYTFSSYDINWVRQAPGQGLEWMGWISTATGNTNYPQKVQGRVTMTTDTSTNTAYMELRSLRSDDTAVYYCTREGNSKGWLDPWGQGTLVTVSS
VL: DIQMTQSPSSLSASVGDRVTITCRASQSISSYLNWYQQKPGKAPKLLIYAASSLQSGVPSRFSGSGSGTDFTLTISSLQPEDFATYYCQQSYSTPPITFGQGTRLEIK
100 nM Ag Bound [1]: 52 RU | Kd [1]: 6.01 nM | koff [1]: 0.00236 s⁻¹ | kon [1]: 393000 M⁻¹ s⁻¹ | t½ [1]: 5 min | 100 nM Ag Bound [2]: 48 RU | Kd [2]: 7.12 nM | koff [2]: 0.00243 s⁻¹ | kon [2]: 341000 M⁻¹ s⁻¹ | t½ [2]: 5 min | 100 nM Ag Bound [3]: 49 RU | Kd [3]: 2.2 nM | koff [3]: 0.000597 s⁻¹ | kon [3]: 272000 M⁻¹ s⁻¹ | t½ [3]: 19 min

B7: MAb16680 (antibody, V domains shown)
VH: QVQLQQSGPGQMKSSQTLTLTCAISGDSVSSNSAIWYWIRQSPSRGLEWLGRTKFRSKWYNDFALSMKSRITINPDTSKNQFSLHLNSVTPEDTAVYYCARYKWELYFDYWGQGTLVTVSS
VL: not shown
notes: captured through anti-human Fc
100 nM Ag Bound (RU) [5]: 0 RU | 100 nM Ag Bound (RU) [6]: 2 RU | binding result [6]: no binding (tested: 100 nM) | 100 nM Ag Bound (RU) [8]: 0 RU | binding result [8]: no binding (tested: 100 nM) | 100 nM Ag Bound (RU) [9]: 1 RU

More lines, now with the values ahead:

100 nM Ag Bound (RU) [4]: 83 RU | Kd [4]: 4.47 nM | koff [4]: 0.000383 s⁻¹ | kon [4]: 85700 M⁻¹ s⁻¹ | t½ [4]: 30 min | 100 nM Ag Bound (RU) [5]: 1 RU | binding result [5]: no binding (tested: 100 nM) | 100 nM Ag Bound (RU) [6]: 0 RU | binding result [6]: no binding (tested: 100 nM) | 100 nM Ag Bound (RU) [7]: 85 RU | Kd [7]: 9.56 nM | koff [7]: 0.00172 s⁻¹ | kon [7]: 180000 M⁻¹ s⁻¹ | t½ [7]: 7 min | 100 nM Ag Bound (RU) [8]: 0 RU | 100 nM Ag Bound (RU) [9]: 0 RU
B4: MAb16614 (antibody, V domains shown)
VH: QVQLVESGGGVVQPGGSLRLSCAASGFTFSTYDIHWVRQAPGKGLEWVAVISFDGSNRNYGDSVKGRFTISRDNSDNTLFLEMNNLRFEDTAVYYCAKEGYGVDFQHWGQGTLVTVSS
VL: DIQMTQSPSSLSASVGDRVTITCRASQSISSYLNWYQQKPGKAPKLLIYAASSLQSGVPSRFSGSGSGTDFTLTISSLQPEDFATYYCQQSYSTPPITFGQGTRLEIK
notes: as for B7

100 nM Ag Bound (RU) [4]: 202 RU | Kd [4]: 0.236 nM | koff [4]: 0.000279 s⁻¹ | kon [4]: 1.19e+06 M⁻¹ s⁻¹ | t½ [4]: 41 min | 100 nM Ag Bound (RU) [5]: 1 RU | binding result [5]: no binding (tested: 100 nM) | 100 nM Ag Bound (RU) [6]: 6 RU | binding result [6]: no binding (tested: 100 nM) | 100 nM Ag Bound (RU) [7]: 236 RU | Kd [7]: 0.674 nM | koff [7]: 0.000934 s⁻¹ | kon [7]: 1.39e+06 M⁻¹ s⁻¹ | t½ [7]: 12 min | 100 nM Ag Bound (RU) [8]: 0 RU | 100 nM Ag Bound (RU) [9]: 2 RU
B5: MAb16618 (antibody, V domains shown)
VH: QVQLQESGPGLVKPSETLSLTCTVSGGSISNYYWTWIRQPPGKGLEWIGHISNSGTTNYNPSLKSRVTISVDTSKNQFSLKLTSVTAADTAVYYCARLPLGIAAVDTDYYYYFGMDVWGQGTTVTVSS
VL: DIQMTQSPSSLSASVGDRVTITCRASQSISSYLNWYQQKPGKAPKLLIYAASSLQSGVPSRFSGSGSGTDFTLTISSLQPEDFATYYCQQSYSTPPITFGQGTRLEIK
notes: as for B7

Luminex MFI signal [10]: 18700 MFI
B6: MAb16680 (antibody, V domains shown)
VH: B7 VH
VL: not shown
notes: hIgG4 isotype control used
